Tested on: PCV2-infected PK-15 cells
Experiment: Number of PCV2-infected PK-15 cells (IPMA) after treatment with cytokines or natural cytokine sources
Assay type: cell-based, Porcine circovirus 2
Settings: for increase in PCV2-positive cells / lowest concentration inducing a significant effect on PCV2-positive cells: PK-15
Method: PK-15 cells were seeded and maintained in culture medium containing 5%-10% fetal bovine serum (FBS), 0.3 mg/ml glutamine, 100 U/ml penicillin, 0.1 mg/ml streptomycin, 0.1 mg/ml kanamycin dissolved in minimal essential medium (MEM) (Gibco BRL®, Grand Island, USA) or dissolved in RPMI-1640 (GIBCO BRL®, Grand Island, USA) containing 1% nonessential amino acids (100×; GIBCO BRL®, Grand Island, USA) and 1 mM sodium pyruvate (GIBCO BRL®, Grand Island, USA). Cells were seeded at a concentration of 150,000 cells per ml of medium. For the detection of total viral antigen positive cells, the cells were seeded in 96-well microtiter plates (Nunc) (15,000-20,000 cells per well). To detect the expression of specific viral antigens, cells were seeded on sterile cover slips in Leighton tubes (150,000 cells per tube) and finally progeny virus production assays were performed in 24-well plates containing […].
In order to use cells, more related to the target cells in vivo, the monocytic cell line 3D4/31 was used to confirm the effect of the different cytokines on the number of PCV2-infected cells. The 3D4/31 cell line is a porcine monomyeloid cell lines that was established following transfection of primary porcine alveolar macrophage cultures with plasmid pSV3neo, carrying genes for neomycin resistance and SV40 large T antigen. (Weingartl et al. (2002) J Virol Methods. 10, 203-216). These cells were maintained in a 1:1 mixture of RPMI-1640 (Invitrogen) and DMEM (Invitrogen) supplemented with 10% fetal bovine serum, 0.3 mg/ml glutamine, 100 U/ml penicillin, 0.1 mg/ml streptomycin, 0.1 mg/ml kanamycin and 1% non-essential amino acids 100× (GIBCO BRL®, Grand Island, USA). These experiments were also performed in 96-well plates containing the same number of cells. Furthermore, to monitor the effect of IFN-gamma on the entry of PCV2 virion-like particles was determined, 3D4/31 cells were seeded at 2×10^5 cells/ml of medium onto microscopic slides mounted with an 8 well cell culture silicone chamber (Vivascience AG, Hanover). In all inoculations, the same PCV2-strain (Stoon-1010) was used at a multiplicity of infection of 0.01. The virus was diluted in MEM and inoculated on the cell cultures by incubating cells and virus for 1 hour at 37° C. After 1 hour, the inoculum was removed, the cultures were washed twice with MEM and new culture medium was added.
The influence of the cytokines on the infection of PCV2 in PK-15 and 3D4/31 cells was determined by adding two-fold-dilution series of the cytokines to the medium of the cells before, during or after the inoculation. IL-1, IL-6, […] and IFN-alpha were used in concentrations ranging from 0.25-250 Units/ml (U/ml), IFN-gamma was used in concentrations ranging from 0.25-1000 U/ml and IL-10 was used in concentrations from 0.13-125 U/ml. Cell cultures were either pre-treated with the cytokines for 24 hours before inoculation, treated during the inoculation or the cytokines were added in the medium after the inoculation. After 36 hours of incubation at 37° C. in an environment supplemented with 5% CO2, the cells were fixed by drying and frozen at −20° C. The plates were stained with an immuno-peroxydase monolayer assay (IPMA) as described by Sanchez et al. (2003, Vet Microbiol 95, 15-25) and the number of PCV2-positive cells was counted by light microscopy. In each plate a control was inoculated with an equal dose of mock-treated PCV2 (treated with MEM without cytokines). The number of infected cells in this well was used as the reference and all results were expressed as a ratio to this reference.
Two-fold dilutions of the BAL-fluids of the PRCV and mock-inoculated pigs were added to the medium of PCV2-inoculated PK-15 cells after inoculation. Concentrations of the added BAL-fluids ranged from 1.25 to 5%. Supernatants of ConA and mock-stimulated PBMC's were also added to the culture medium of PK-15 cells after inoculation in concentrations ranging from […] to 50%. […]

B1: IFN-gamma: Porcine interferon gamma purchased from R&D systems (protein, UniProt P17803 24-166, looked up)
Interferon gamma: QAPFFKEITILKDYFNASTSDVPNGGPLFLEILKNWKEESDKKIIQSQIVSFYFKFFEIFKDNQAIQRSMDVIKQDMFQRFLNGSSGKLNDFEKLIKIPVDNLQIQRKAISELIKVMNDLSPRSNLRKRKRSQTMFQGQRASK
With B1 the “increase in PCV2-positive cells” value (1000 U/ml added after inoculation) was 791±105%, the “increase in PCV2-positive cells” value (1000 U/ml added before inoculation) was 518±134% and the “increase in PCV2-positive cells” value (1000 U/ml added during inoculation) was 270±57%. The “lowest concentration inducing a significant effect on PCV2-positive cells” value (administered after inoculation) was 2 U/ml, the “lowest concentration inducing a significant effect on PCV2-positive cells” value (administered before inoculation) was 16 U/ml and the “lowest concentration inducing a significant effect on PCV2-positive cells” value (administered during inoculation) was 2 U/ml. For the same molecule, the “change in the number of PCV2-positive cells (in words)” value (PK-15 cells, cytokine dilution series, before, during or after inoculation, 36 h) was “dose-dependent increase”.
